Assay results taken from PMC6053351.

Tests used:
[1] = molecular target: RBBP4 Glu126Ala/Asn128Ala/Glu179Ala (UniProt Q09028); experiment: ITC; AEBP2 ZF1–3 titrated into RBBP4; one-site binding model, Origin 7
[2] = molecular target: RBBP4, full-length, wild type (UniProt Q09028); experiment: as above
Sequence of RBBP4, full-length, wild type (Q09028 whole entry): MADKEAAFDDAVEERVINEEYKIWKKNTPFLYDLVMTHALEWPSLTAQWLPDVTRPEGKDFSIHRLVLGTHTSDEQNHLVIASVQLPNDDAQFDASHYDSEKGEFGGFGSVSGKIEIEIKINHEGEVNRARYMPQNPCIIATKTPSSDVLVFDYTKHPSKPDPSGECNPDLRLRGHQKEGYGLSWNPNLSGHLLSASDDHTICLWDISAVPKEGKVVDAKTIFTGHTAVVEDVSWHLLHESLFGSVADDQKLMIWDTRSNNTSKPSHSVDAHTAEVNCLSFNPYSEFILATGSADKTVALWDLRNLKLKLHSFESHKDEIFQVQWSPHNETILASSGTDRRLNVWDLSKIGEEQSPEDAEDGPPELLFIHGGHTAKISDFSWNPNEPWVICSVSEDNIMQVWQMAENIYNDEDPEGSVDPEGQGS

Sequence of RBBP4 Glu126Ala/Asn128Ala/Glu179Ala (Q09028 whole entry E126A/N128A/E179A): as the sequence (Q09028 whole entry) above, with E126A, N128A, E179A counted along it

Kd [1]: 16 µM
Kd [2]: 10.1 µM
Substance: AEBP2 ZF1–3 (three zinc fingers, residues Asn258–Gln357) (domain or fragment)
